# According to FireProtDB (doi:10.1016/j.bpc.2020.106337):
# B1: non-specific serine/threonine protein kinase, O49003 (parent)
# chain: MASKGAGGGGGGHEEPQRPKQQLPRDSRGSLEVFNPSSSSAAVEPPSAFRPAARSASPFIEEATGGIEDVGKATQRAAEWGLVLQTNEQTGRPQGVSARSSGGGGSARSSSDDKAVAGAIPRVSEELRAALSAFQQTFVVSDASRPGHPIMYASAGFFNMTGYTSKEVVGRNCRFLQGSGTDPAEIAKIRQALANGSNYCGRVLNYKKDGTAFWNLLTIAPIKDEEGRVLKFIGMQVEVSKYTEGNKDTVVRPNGLPESLIKYDARQKDQARSSVSELLLAIKNPRSLSESTNSTFKRKSQESVGALTGDRPGKRSSESGSRRNSKSGARTSLQKISEVPERGSKSRKSGLYSLMSLLGMGPGNIEKDMLKPRDEDPLLDSDDERPESFDDELRRKEMRRGIDLATTLERIEKNFVITDPRLPDNPIIFASDSFLQLTEYSREEILGRNCRFLQGPETDRATVRKIRDAIDNQTEVTVQLINYTKSGKKFWNLFHLQPMRDQKGDVQYFIGVQLDGTEHVRDAAEREGVMLIKKTAENIDEAAKELPDANLRPEDLWANHSKVVLPKPHMKDSASWRAIQKVLEGGENIDLKHFRPVKPLGSGDTGSVHLVELLNTGEYFAMKAMDKNVMLNRNKVHRANAEREILDMLDHPFLPTLYASFQTKTHICLITDYYPGGELFLLLDRQPLKVLREDAVRFYAAEVVIALEYLHCQGIIYRDLKPENILLHRDGHISLTDFDLSCLTSCRPQVFLPEEANKKSRRKSRSSPIFFAEPMRASNSFVGTEEYIAPEIITGAGHTSAVDWWALGILLYEMLYGYTPFRGKTRQRTFANILHKDIRFPASISVSLPARQLIYRLLHRDPSNRLGSYEGSNEIKEHPFFRGINWALVRGTAPPKLDAPLFPDDTDKGMGDAAAADTHTDMF
# Variants of: B1
# Conditions: Avena sativa; pH 4; Thermal; CD; Sodium acetate; transition: 2; reversible: partially reversible; structure 2V0U; whole UniProt chain shown
Variant,Tm,"change of melting temperature, mutant - wild type (higher = more stable)"
C450A,51 °C,0.7 °C

# Same assay, conditions: Avena sativa; pH 4; Thermal; DSC; Sodium acetate; transition: 2; reversible: partially reversible; structure 2V0U; whole UniProt chain shown
Variant,Tm,"change of melting temperature, mutant - wild type (higher = more stable)"
C450A,50.7 °C,2.7 °C

# Same assay, conditions: Avena sativa; pH 4; Thermal; fluorescence; Sodium acetate; transition: 2; reversible: partially reversible; structure 2V0U; whole UniProt chain shown
Variant,Tm,"change of melting temperature, mutant - wild type (higher = more stable)"
C450A,49.9 °C,2.8 °C

# Same assay, conditions: Avena sativa; pH 7; 20 °C; Urea; fluorescence; sodium phosphate; transition: 2; reversible: no; structure 2V0U; whole UniProt chain shown
Variant,ddG of mutation (higher = less stable),denaturant m value,denaturant midpoint (higher = more stable),unfolding free energy
C450A,-0.48 kcal/mol,1.67 kcal/mol/M,3.39 M,6.07 kcal/mol

# Same assay, conditions: Avena sativa; pH 7; Thermal; CD; sodium phosphate; transition: 2; reversible: partially reversible; structure 2V0U; whole UniProt chain shown
Variant,Tm,"change of melting temperature, mutant - wild type (higher = more stable)"
C450A,64.4 °C,3.3 °C

# Same assay, conditions: Avena sativa; pH 7; Thermal; DSC; sodium phosphate; transition: 2; reversible: partially reversible; structure 2V0U; whole UniProt chain shown
Variant,Tm,"change of melting temperature, mutant - wild type (higher = more stable)"
C450A,65 °C,3.1 °C

# Same assay, conditions: Avena sativa; pH 7; Thermal; fluorescence; sodium phosphate; transition: 2; reversible: partially reversible; structure 2V0U; whole UniProt chain shown
Variant,Tm,"change of melting temperature, mutant - wild type (higher = more stable)"
C450A,63.6 °C,3.8 °C

# Same assay, conditions: Avena sativa; pH 8; Thermal; CD; sodium phosphate; transition: 2; reversible: partially reversible; structure 2V0U; whole UniProt chain shown
Variant,Tm,"change of melting temperature, mutant - wild type (higher = more stable)"
C450A,64.4 °C,2.6 °C

# Same assay, conditions: Avena sativa; pH 8; Thermal; DSC; sodium phosphate; transition: 2; reversible: partially reversible; structure 2V0U; whole UniProt chain shown
Variant,Tm,"change of melting temperature, mutant - wild type (higher = more stable)"
C450A,63.8 °C,3.7 °C

# Same assay, conditions: Avena sativa; pH 8; Thermal; fluorescence; sodium phosphate; transition: 2; reversible: partially reversible; structure 2V0U; whole UniProt chain shown
Variant,Tm,"change of melting temperature, mutant - wild type (higher = more stable)"
C450A,63.5 °C,3.4 °C

# Same assay, conditions: Avena sativa; pH 9; Thermal; DSC; glycine; transition: 2; reversible: partially reversible; structure 2V0U; whole UniProt chain shown
Variant,Tm,"change of melting temperature, mutant - wild type (higher = more stable)"
C450A,66 °C,4.2 °C

# Same assay, conditions: Avena sativa; pH 9; Thermal; fluorescence; glycine; transition: 2; reversible: partially reversible; structure 2V0U; whole UniProt chain shown
Variant,Tm,"change of melting temperature, mutant - wild type (higher = more stable)"
C450A,63.5 °C,2.6 °C
